Reference: patent US20240309103A1 (Regeneron, published 2024)

What was measured:
[1] = biological target: T1, hNPR1-mFc:hANP or hNPR1-hFc:hANP complex (human, UniProt P01160 124-151); experiment: SPR, mAb captured, 25C
T1 construct: also called human NPR1 complexed to ANP
Protocol: (§1) Equilibrium dissociation constant (KD) for different NPR1 reagents binding to purified anti-NPR1 monoclonal antibodies (mAbs) were determined using a real-time surface plasmon resonance based Biacore 4000 biosensor. All binding studies were performed in 10 mM HEPES, 150 mM NaCl, 3 mM EDTA, and 0.05% v/v Surfactant Tween-20, pH 7.4 (HBS-ET) running buffer at 25° C. and 37° C. The Biacore CM5 sensor chip surface was first derivatized by amine coupling with either mouse anti-human Fc specific mAb (GE Healthcare, #BR100839) or goat anti-human Fcy specific polyclonal antibody (Jackson ImmunoResearch Laboratories, #BR-1008-39) to capture anti-NPR1 mAbs.

hNPR1-mFc:hBNP complex [2] = biological target: T2, hNPR1-mFc:hBNP complex (human, UniProt P16860 103-134); experiment: SPR, mAb captured, 25C
T2 construct: also called human NPR1 complexed to BNP
Protocol: as §1

mfNPR1-mFc [3] = biological target: T3, mfNPR1-mFc (monkey); experiment: SPR, mAb captured, 25C
T3 construct: also called dimeric monkey NPR1
T3 chain: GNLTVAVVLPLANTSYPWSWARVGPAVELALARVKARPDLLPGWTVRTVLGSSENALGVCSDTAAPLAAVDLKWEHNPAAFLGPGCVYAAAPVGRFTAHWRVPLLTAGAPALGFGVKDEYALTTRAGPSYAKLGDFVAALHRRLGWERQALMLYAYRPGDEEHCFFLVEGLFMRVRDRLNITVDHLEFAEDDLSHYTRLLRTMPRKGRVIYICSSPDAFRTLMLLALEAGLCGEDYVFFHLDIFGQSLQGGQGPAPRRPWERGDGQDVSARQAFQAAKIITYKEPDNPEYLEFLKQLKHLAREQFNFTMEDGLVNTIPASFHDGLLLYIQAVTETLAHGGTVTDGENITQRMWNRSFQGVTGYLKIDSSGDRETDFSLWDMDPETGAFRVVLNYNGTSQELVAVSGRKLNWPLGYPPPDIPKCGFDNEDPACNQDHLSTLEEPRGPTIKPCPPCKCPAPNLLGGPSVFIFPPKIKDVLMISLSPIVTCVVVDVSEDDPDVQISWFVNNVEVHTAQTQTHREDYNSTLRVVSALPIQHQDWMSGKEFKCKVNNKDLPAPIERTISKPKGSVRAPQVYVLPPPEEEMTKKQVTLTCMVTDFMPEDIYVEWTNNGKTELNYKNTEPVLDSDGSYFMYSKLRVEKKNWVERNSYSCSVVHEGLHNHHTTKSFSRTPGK
Protocol: as §1

mfNPR1-mFc:hANP complex [4] = biological target: T4, mfNPR1-mFc:hANP complex (monkey; human, UniProt P01160 124-151); experiment: SPR, mAb captured, 25C
T4 construct: also called monkey NPR1 complexed to ANP
Protocol: as §1

mfNPR1-mFc:hBNP complex = biological target: T5, mfNPR1-mFc:hBNP complex (monkey; human, UniProt P16860 103-134); experiment: SPR, mAb captured, 25C
T5 construct: also called monkey NPR1 complexed to BNP
Protocol: as §1

[5] = biological target: T1, hNPR1-mFc:hANP or hNPR1-hFc:hANP complex; experiment: SPR, mAb captured, 37C
Protocol: as §1

hNPR1-mFc:hBNP complex [6] = biological target: T2, hNPR1-mFc:hBNP complex; experiment: SPR, mAb captured, 37C
Protocol: as §1

mfNPR1-mFc [7] = biological target: T3, mfNPR1-mFc; experiment: SPR, mAb captured, 37C
Protocol: as §1

mfNPR1-mFc:hANP complex [8] = biological target: T4, mfNPR1-mFc:hANP complex; experiment: SPR, mAb captured, 37C
Protocol: as §1

B1: mAb25479 (antibody, human IgG4, V domains shown)
VH: QVQLVQSGAEVKKPGASVKVSCKASGYTFTGYYIHWVRQAPGQGLEWMGWINPNSIGTNYAQKFQGRVTLTRDTSISTAYMELSSLRSDDTAVYYCARGGSSSYYYYYYGMDVWGQGTTVTVSS
VL: DIQMTQSPSSLSASVGDRVTITCRASQSIDNYLNWYQQKPGKAPKLLIYVASSLQSGVPSRFSGSGSGTDFTLTISSLQPEDFATYYCQQSYSTPLTFGGGTKVEIK
- 100 nM Ag Bound (RU) [1]: 49 RU
- Kd [1]: 3.53 nM
- koff [1]: 0.000109 s⁻¹
- kon [1]: 31000 M⁻¹ s⁻¹
- t½ [1]: 1.76 h
- 100 nM Ag Bound (RU) (hNPR1-mFc:hBNP complex [2]): 50 RU
- Kd (hNPR1-mFc:hBNP complex [2]): 4.21 nM
- koff (hNPR1-mFc:hBNP complex [2]): 0.000123 s⁻¹
- kon (hNPR1-mFc:hBNP complex [2]): 29200 M⁻¹ s⁻¹
- t½ (hNPR1-mFc:hBNP complex [2]): 1.57 h
- 100 nM Ag Bound (RU) (mfNPR1-mFc [3]): 54 RU
- Kd (mfNPR1-mFc [3]): 16.2 nM
- koff (mfNPR1-mFc [3]): 0.000507 s⁻¹
- kon (mfNPR1-mFc [3]): 31200 M⁻¹ s⁻¹
- t½ (mfNPR1-mFc [3]): 0.38 h
- 100 nM Ag Bound (RU) (mfNPR1-mFc:hANP complex [4]): 86 RU
- Kd (mfNPR1-mFc:hANP complex [4]): 2.44 nM
- koff (mfNPR1-mFc:hANP complex [4]): 0.000103 s⁻¹
- kon (mfNPR1-mFc:hANP complex [4]): 42000 M⁻¹ s⁻¹
- t½ (mfNPR1-mFc:hANP complex [4]): 1.88 h
- 100 nM Ag Bound (RU) (mfNPR1-mFc:hBNP complex): 86 RU
- Kd (mfNPR1-mFc:hBNP complex): 2.95 nM
- koff (mfNPR1-mFc:hBNP complex): 0.000113 s⁻¹
- kon (mfNPR1-mFc:hBNP complex): 38100 M⁻¹ s⁻¹
- t½ (mfNPR1-mFc:hBNP complex): 1.71 h
- 100 nM Ag Bound (RU) [5]: 84 RU
- Kd [5]: 2.7 nM
- koff [5]: 0.000134 s⁻¹
- kon [5]: 49700 M⁻¹ s⁻¹
- t½ [5]: 1.43 h
- 100 nM Ag Bound (RU) (hNPR1-mFc:hBNP complex [6]): 85 RU
- Kd (hNPR1-mFc:hBNP complex [6]): 3.83 nM
- koff (hNPR1-mFc:hBNP complex [6]): 0.000163 s⁻¹
- kon (hNPR1-mFc:hBNP complex [6]): 42700 M⁻¹ s⁻¹
- t½ (hNPR1-mFc:hBNP complex [6]): 1.18 h
- 100 nM Ag Bound (RU) (mfNPR1-mFc [7]): 89 RU
- Kd (mfNPR1-mFc [7]): 28.1 nM
- koff (mfNPR1-mFc [7]): 0.00108 s⁻¹
- kon (mfNPR1-mFc [7]): 38200 M⁻¹ s⁻¹
- t½ (mfNPR1-mFc [7]): 0.178 h
- 100 nM Ag Bound (RU) (mfNPR1-mFc:hANP complex [8]): 138 RU
- Kd (mfNPR1-mFc:hANP complex [8]): 4 nM
- koff (mfNPR1-mFc:hANP complex [8]): 0.000219 s⁻¹
- kon (mfNPR1-mFc:hANP complex [8]): 54700 M⁻¹ s⁻¹
- t½ (mfNPR1-mFc:hANP complex [8]): 0.88 h

B2: mAb25491 (antibody, human IgG4, V domains shown)
VH: QVQLVQSGAEVMKPGASVKVSCKASGYTFTGYYIHWVRQAPGQGLEWMGWITPNSGATNYAQKFQGRVTLTRDTSISTAYMELTRLKSDDTAVYYCARGGQLEFFYYYYGMDVWGQGTTVTVSS
VL: DIQMTQSPSSLSASAGDRVTITCRASQSIDSYLNWYQQKPGKAPKLLISATSGFQSGVPSRFSGSGSGTDFTLTISSLQPEDFGTYYCQQSYTTPITFGQGTRLEIK
- 100 nM Ag Bound (RU) [1]: 71 RU
- Kd [1]: 0.794 nM
- koff [1]: 4.15e-05 s⁻¹
- kon [1]: 52200 M⁻¹ s⁻¹
- t½ [1]: 4.64 h
- 100 nM Ag Bound (RU) (hNPR1-mFc:hBNP complex [2]): 72 RU
- Kd (hNPR1-mFc:hBNP complex [2]): 0.908 nM
- koff (hNPR1-mFc:hBNP complex [2]): 4.96e-05 s⁻¹
- kon (hNPR1-mFc:hBNP complex [2]): 54600 M⁻¹ s⁻¹
- t½ (hNPR1-mFc:hBNP complex [2]): 3.88 h
- 100 nM Ag Bound (RU) (mfNPR1-mFc [3]): 81 RU
- Kd (mfNPR1-mFc [3]): 1.4 nM
- koff (mfNPR1-mFc [3]): 7.54e-05 s⁻¹
- kon (mfNPR1-mFc [3]): 54000 M⁻¹ s⁻¹
- t½ (mfNPR1-mFc [3]): 2.55 h
- 100 nM Ag Bound (RU) (mfNPR1-mFc:hANP complex [4]): 111 RU
- Kd (mfNPR1-mFc:hANP complex [4]): 0.757 nM
- koff (mfNPR1-mFc:hANP complex [4]): 4.55e-05 s⁻¹
- kon (mfNPR1-mFc:hANP complex [4]): 60100 M⁻¹ s⁻¹
- t½ (mfNPR1-mFc:hANP complex [4]): 4.23 h
- 100 nM Ag Bound (RU) (mfNPR1-mFc:hBNP complex): 110 RU
- Kd (mfNPR1-mFc:hBNP complex): 0.632 nM
- koff (mfNPR1-mFc:hBNP complex): 3.71e-05 s⁻¹
- kon (mfNPR1-mFc:hBNP complex): 58600 M⁻¹ s⁻¹
- t½ (mfNPR1-mFc:hBNP complex): 5.19 h
- 100 nM Ag Bound (RU) [5]: 96 RU
- Kd [5]: 1.95 nM
- koff [5]: 0.000111 s⁻¹
- kon [5]: 56900 M⁻¹ s⁻¹
- t½ [5]: 1.73 h
- 100 nM Ag Bound (RU) (hNPR1-mFc:hBNP complex [6]): 96 RU
- Kd (hNPR1-mFc:hBNP complex [6]): 2.45 nM
- koff (hNPR1-mFc:hBNP complex [6]): 0.000134 s⁻¹
- kon (hNPR1-mFc:hBNP complex [6]): 54700 M⁻¹ s⁻¹
- t½ (hNPR1-mFc:hBNP complex [6]): 1.44 h
- 100 nM Ag Bound (RU) (mfNPR1-mFc [7]): 114 RU
- Kd (mfNPR1-mFc [7]): 3.49 nM
- koff (mfNPR1-mFc [7]): 0.000164 s⁻¹
- kon (mfNPR1-mFc [7]): 47000 M⁻¹ s⁻¹
- t½ (mfNPR1-mFc [7]): 1.17 h
- 100 nM Ag Bound (RU) (mfNPR1-mFc:hANP complex [8]): 148 RU
- Kd (mfNPR1-mFc:hANP complex [8]): 1.49 nM
- koff (mfNPR1-mFc:hANP complex [8]): 0.000106 s⁻¹
- kon (mfNPR1-mFc:hANP complex [8]): 71000 M⁻¹ s⁻¹
- t½ (mfNPR1-mFc:hANP complex [8]): 1.82 h
